Biological target: NP‐WT S nanoparticles (nanoparticles coated with WT spike proteins) (SARS-CoV-2)
Assay: SPR

B1: P5‐1C8 IgG (full‐length) (antibody, V domains shown)
VH: EVQLVESGGGLIQPGGSLRLSCAASEIIVSRNYMNWVRQAPGKGLEWVSVIYSGGSTFYADSVKGRFTISRDNSENTLYLQMNSLRAEDTAVYYCARGYGDYYFDYWGRGTLVTVSS
VL: not shown
koff: 2.19e-05 s⁻¹

Reference: PMC12931240 (2025)
